We go through one substance from PMC3481350.

In this test the target is Deg2 protease (Arabidopsis thaliana), mature Deg2 (Arabidopsis thaliana). The test is described as follows: SEC + other: dynamic light scattering.

For “Deg2 protease (Arabidopsis thaliana), mature Deg2 (enzyme)”, the stoichiometry N came to 6.

One may read the stoichiometry N as the number of molecules, sites or subunits per partner or assembly.
